Columns and labels:
Assay in all cases: co-immunoprecipitation with anti-αPDGFR antibody from F cells, Western blot
[1] = target: T1, phospholipase C-γ1 (PLCγ) (UniProt Q62077 2-1302, limits assumed)
T1 construct: Endogenous protein that co-precipitates with the receptor from F cell lysates; also called phospholipase C-gamma
T1 sequence (looked up): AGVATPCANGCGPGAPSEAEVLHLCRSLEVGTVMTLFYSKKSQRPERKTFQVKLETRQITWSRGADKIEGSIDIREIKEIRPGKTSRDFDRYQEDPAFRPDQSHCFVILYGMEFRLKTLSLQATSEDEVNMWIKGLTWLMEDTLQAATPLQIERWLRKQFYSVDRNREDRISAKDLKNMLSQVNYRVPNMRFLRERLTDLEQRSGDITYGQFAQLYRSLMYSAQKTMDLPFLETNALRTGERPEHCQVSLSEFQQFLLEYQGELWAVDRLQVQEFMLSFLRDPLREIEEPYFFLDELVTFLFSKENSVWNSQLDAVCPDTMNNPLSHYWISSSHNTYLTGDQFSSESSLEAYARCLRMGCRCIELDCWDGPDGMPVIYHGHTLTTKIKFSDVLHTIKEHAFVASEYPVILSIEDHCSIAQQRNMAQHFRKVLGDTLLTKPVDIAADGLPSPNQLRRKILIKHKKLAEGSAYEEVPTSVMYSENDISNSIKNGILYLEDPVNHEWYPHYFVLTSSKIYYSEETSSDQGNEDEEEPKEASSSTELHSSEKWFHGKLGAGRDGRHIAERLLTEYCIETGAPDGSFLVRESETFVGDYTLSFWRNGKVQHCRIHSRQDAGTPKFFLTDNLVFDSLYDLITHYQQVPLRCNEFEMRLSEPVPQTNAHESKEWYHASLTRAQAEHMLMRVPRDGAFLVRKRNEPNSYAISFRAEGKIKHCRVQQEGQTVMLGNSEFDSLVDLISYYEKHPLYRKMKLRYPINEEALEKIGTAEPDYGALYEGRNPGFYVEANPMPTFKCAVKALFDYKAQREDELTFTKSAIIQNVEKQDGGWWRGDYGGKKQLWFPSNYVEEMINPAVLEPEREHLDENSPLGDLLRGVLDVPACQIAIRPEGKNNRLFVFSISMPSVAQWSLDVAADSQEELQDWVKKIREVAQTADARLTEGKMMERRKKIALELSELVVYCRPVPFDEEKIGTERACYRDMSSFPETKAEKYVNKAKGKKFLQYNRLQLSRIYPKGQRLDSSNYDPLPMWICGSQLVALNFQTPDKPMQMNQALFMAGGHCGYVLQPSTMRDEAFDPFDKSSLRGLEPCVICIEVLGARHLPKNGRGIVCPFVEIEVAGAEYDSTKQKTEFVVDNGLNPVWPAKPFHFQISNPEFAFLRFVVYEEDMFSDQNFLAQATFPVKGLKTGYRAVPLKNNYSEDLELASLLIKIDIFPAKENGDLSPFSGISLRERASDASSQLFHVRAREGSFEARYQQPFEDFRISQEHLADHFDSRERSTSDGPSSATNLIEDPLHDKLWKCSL
Text: (§1) Portions of the membrane that contained the proteins of the appropriate molecular mass were immunoblotted for PLCγ, the regulatory subunit of PI3K (p85), or SHP-2. Crude rabbit anti-p85 antibody is from Dr. A. Toker (Beth Israel Hospital/Harvard Medical School, Boston, Mass.). The monoclonal antibodies against PLCγ and SHP-2 were purchased from Upstate Biotechnology Inc.

[2] = target: T2, tyrosine phosphatase SHP-2 (UniProt P35235 2-593, limits assumed)
T2 construct: Endogenous protein that co-precipitates with the receptor from F cell lysates
T2 sequence (looked up): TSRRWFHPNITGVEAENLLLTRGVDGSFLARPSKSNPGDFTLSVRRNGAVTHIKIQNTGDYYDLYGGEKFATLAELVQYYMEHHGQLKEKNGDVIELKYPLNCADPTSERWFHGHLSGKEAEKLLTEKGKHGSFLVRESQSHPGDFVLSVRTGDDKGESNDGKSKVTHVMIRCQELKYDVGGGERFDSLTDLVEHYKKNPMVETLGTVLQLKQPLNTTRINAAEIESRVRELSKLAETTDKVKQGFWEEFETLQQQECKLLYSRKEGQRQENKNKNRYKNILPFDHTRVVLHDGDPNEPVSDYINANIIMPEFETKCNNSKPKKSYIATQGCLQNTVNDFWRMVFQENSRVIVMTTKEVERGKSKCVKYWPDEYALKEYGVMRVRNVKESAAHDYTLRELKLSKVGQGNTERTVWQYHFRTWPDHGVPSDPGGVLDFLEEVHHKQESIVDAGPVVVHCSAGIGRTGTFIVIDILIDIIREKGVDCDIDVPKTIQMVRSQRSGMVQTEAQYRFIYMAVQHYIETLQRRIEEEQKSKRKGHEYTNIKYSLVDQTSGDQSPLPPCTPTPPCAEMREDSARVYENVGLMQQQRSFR
Text: as §1

[3] = target: T3, regulatory subunit of PI3K (p85) (UniProt P26450 2-724)
T3 construct: The catalytic subunit is not described; also called phosphoinositide 3-kinase
Text: as §1

T3 sequence (P26450 2-724): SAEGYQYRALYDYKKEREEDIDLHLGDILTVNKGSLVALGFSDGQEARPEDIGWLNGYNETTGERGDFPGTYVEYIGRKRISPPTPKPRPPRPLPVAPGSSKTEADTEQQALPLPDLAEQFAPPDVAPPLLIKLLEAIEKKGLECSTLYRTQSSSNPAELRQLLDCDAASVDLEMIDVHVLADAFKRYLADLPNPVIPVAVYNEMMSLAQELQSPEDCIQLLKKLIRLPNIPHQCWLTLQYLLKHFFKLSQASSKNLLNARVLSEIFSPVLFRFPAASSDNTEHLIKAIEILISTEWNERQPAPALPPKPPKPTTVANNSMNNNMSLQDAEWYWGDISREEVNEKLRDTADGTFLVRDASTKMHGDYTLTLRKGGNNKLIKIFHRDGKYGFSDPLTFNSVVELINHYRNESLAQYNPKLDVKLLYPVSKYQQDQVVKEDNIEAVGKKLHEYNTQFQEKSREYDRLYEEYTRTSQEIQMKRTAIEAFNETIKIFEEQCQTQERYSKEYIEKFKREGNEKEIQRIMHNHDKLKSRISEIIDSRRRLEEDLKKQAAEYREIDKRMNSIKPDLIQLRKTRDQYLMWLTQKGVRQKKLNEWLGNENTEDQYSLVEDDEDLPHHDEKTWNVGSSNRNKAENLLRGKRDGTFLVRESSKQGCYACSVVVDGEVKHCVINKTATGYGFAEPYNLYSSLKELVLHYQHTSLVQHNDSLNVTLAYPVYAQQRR

binding result [1]: no binding | binding result [2]: no binding | binding result [3]: no binding
B1: αPDGFR mutant F7 (Tyr to Phe substitution at 572, 574, 720, 731, 742, 988, and 1018) (receptor)
chain: QLSLPSILPNENEKVVQLNSSFSLRCFGESEVSWQYPMSEEESSDVEIRNEENNSGLFVTVLEVSSASAAHTGLYTCYYNHTQTEENELEGRHIYIYVPDPDVAFVPLGMTDYLVIVEDDDSAIIPCRTTDPETPVTLHNSEGVVPASYDSRQGFNGTFTVGPYICEATVKGKKFQTIPFNVYALKATSELDLEMEALKTVYKSGETIVVTCAVFNNEVVDLQWTYPGEVKGKGITMLEEIKVPSIKLVYTLTVPEATVKDSGDYECAARQATREVKEMKKVTISVHEKGFIEIKPTFSQLEAVNLHEVKHFVVEVRAYPPPRISWLKNNLTLIENLTEITTDVEKIQEIRYRSKLKLIRAKEEDSGHYTIVAQNEDAVKSYTFELLTQVPSSILDLVDDHHGSTGGQTVRCTAEGTPLPDIEWMICKDIKKCNNETSWTILANNVSNIITEIHSRDRSTVEGRVTFAKVEETIAVRCLAKNLLGAENRELKLVAPTLRSELTVAAAVLVLLVIVIISLIVLVVIWKQKPRYEIRWRVIESISPDGHEFIFVDPMQLPYDSRWEFPRDGLVLGRVLGSGAFGKVVEGTAYGLSRSQPVMKVAVKMLKPTARSSEKQALMSELKIMTHLGPHLNIVNLLGACTKSGPIYIITEYCFYGDLVNYLHKNRDSFLSHHPEKPKKELDIFGLNPADESTRSFVILSFENNGDFMDMKQADTTQFVPMLERKEVSKYSDIQRSLYDRPASYKKKSMLDSEVKNLLSDDNSEGLTLLDLLSFTYQVARGMEFLASKNCVHRDLAARNVLLAQGKIVKICDFGLARDIMHDSNYVSKGSTFLPVKWMAPESIFDNLYTTLSDVWSYGILLWEIFSLGGTPYPGMMVDSTFYNKIKSGYRMAKPDHATSEVYEIMVKCWNSEPEKRPSFYHLSEIVENLLPGQYKKSYEKIHLDFLKSDHPAVARMRVDSDNAFIGVTYKNEEDKLKDWEGGLDEQRLSADSGFIIPLPDIDPVPEEEDLGKRNRHSSQTSEESAIETGSSSSTFIKREDETIEDIDMMDDIGIDSSDLVEDSFL
notes: Expressed in F cells and immunoprecipitated from lysates

— patent US20020111304A1 (SCHEPENS EYE RESEARCH INSTITUTE, published 2002)
